Measured values from patent US20230348564A1, “ANTI-CANCER PROTEINS” (UNICHEM LABORATORIES LTD, priority 2020, published 2023).

What was measured:
[1] = tested on: MDA-MB-231; assay: JC-1 assay, mitochondrial membrane depolarization; format: cell-based, Human; conditions: 16h
Protocol: To evaluate the in vitro apoptotic effect of recombinant lectin having the amino acid sequence of SEQ ID NO.2 in MDA-MB-231 (breast cancer) and PANG-1 (pancreatic cancer) cell line by JC-1 assay, an increase in mitochondrial membrane depolarization was used as a marker of apoptosis. […] 2 using JC-1 dye based method. […] The cell lines were grown in Dulbecco's Modified Eagle Medium (DMEM)+10% heat inactivated FBS at 37° C. (95% humidity and 5% CO2). […] Recombinant lectin having the amino acid sequence of SEQ ID NO. 2 was diluted in serum free medium. Doxorubicin was used as positive control and stock solution was prepared in dimethyl sulfoxide (DMSO). […] The cells were then incubated overnight under growth conditions to allow the cell recovery and exponential growth. Cells were treated with the recombinant lectin of SEQ ID NO. […] Following respective treatments the cells in the above plate were incubated for 16h in CO2 incubator at 37° C., 5% CO2 and 95% humidity.
After 16h of incubation, the supernatants were discarded and 100 μL of JC1-dye solution (prepared by diluting 1 mM DMSO stock in to 10 μM in 1×PBS) was added to each well. The cells were then incubated with the dye in CO2 incubator at 37° C. for 15 min. After 15 min of incubation, the supernatant was removed and the cells were washed twice with 1×PBS and then 100 μL of 1×PBS was added to each well. Red fluorescence (excitation 550 nm, emission 600 nm) and green fluorescence (excitation 485 nm, emission 535 nm) were measured using Biotek Synergy FIT plate reader. The mitochondrial membrane potential […] was calculated as the ratio of intensity of red fluorescence to intensity of green fluorescence described as follows:
ΔΨM=Intensity of red fluorescence/Intensity of green fluorescence
The percentage decrease of Red fluorescence/Green fluorescence corresponding to each treatment was calculated using the following formula:
Where X=Δψm corresponding to treated cells R=ΔΨM corresponding to control wells.

[2] = tested on: T-24
[3] = tested on: VEGF release in PANC-1 cells; assay: VEGF secretion in cancer cells (Human VEGF ELISA); format: cell-based; conditions: 24 h
Protocol: The cell lines were maintained in DMEM+10% […] (heat inactivated) at 37° C. with 5% CO2, and 95% humidity. Cells were counted and plated in 6-well plates for 24 h at a density of 0.5×10^6 cells/well. The cells were incubated overnight under growth conditions as described above so as to allow cell recovery and exponential growth. Cells were treated with each test item at different concentrations for 24h in serum free media. Doxorubicin was used as positive control. Secreted levels of VEGF were determined in supernatants after 24 hours using Human VEGF ELISA kit (R&D systems) as per manufacturer's protocol. Change in VEGF levels corresponding to each treatment was calculated using the following formula: […]

[4] = tested on: MCF-7
[5] = tested on: EA.hy926 (Human endothelial cells); assay: endothelial cell proliferation by MTT assay; format: cell-based; conditions: for % inhibition of FBS stimulated cell growth / Mean (MTT absorbance): 72 h
Protocol: The cell line used for the study was EA.hy926 (Human endothelial cells) which was procured from National Centre for Cell Science, Pune (India). The cell line was maintained in DMEM+10% FBS (heat inactivated) at 37° C. with 5% CO2, and 95% humidity. […] Untreated cells with complete medium (10% FBS) served as complete medium control, cells with sera free medium served as SFM control and the cells treated with Paclitaxel served as positive control.
The percentage cytotoxicity corresponding to each treatment was calculated.

[6] = tested on: IOMM-Lee cell line; assay: Mitochondrial membrane depolarization by JC-1 staining; format: cell-based, Human; conditions: 1 μg/mL-80 μg/mL
Protocol: (§1) The evaluation of pro-apoptotic effect of SEQ ID NO. 2 in brain tumor cell lines U251MG & IOMM Lee was conducted. The cells were treated with SEQ ID NO. 2 at various concentrations around IC50 values. Resultant effect on apoptosis was determined via externalization of Phosphatidyl Serine (PS) on cell membrane by Annexin-V staining, mitochondrial membrane depolarization by JC-1 staining and cell cycle distribution analysis by Propidium Iodide (PI) staining. Increase in apoptotic markers in U251MG & IOMM-Lee cell lines reflected the pro-apoptotic potential of SEQ ID NO. 2 in brain tumor. • Externalization of PS on cell membrane by Annexin-V staining on U251MG cell line: SEQ ID NO.

[7] = tested on: U251MG cell line; assay: as above; format: cell-based, Human; conditions: 1 μg/mL-80 μg/mL
Protocol: as §1

B1: SEQ ID NO. 2: recombinant lectin; variant of the S. rolfsii lectin amino acid sequence (reported as Rec-2 in WO 2010/095143) (protein)
chain: TYKITVRVYQTNPDAFFHPVEKTVWKYANGGTWTITDDQHVLTMGGSGTSGTLRFHADNGESFTATFGVHNYKRWCDIVTNLAADETGMVINQQYYSQKNREEARERQLSNYQVKNAKGRNFQIVYTEAEGNDLHANLIIG
modifications: In vitro synthesis
- Average Green fluorescence ([1]; 2.5 μg/mL): 703.0
- Average Red fluorescence ([1]; 2.5 μg/mL): 769.7
- Percentage decrease in MMP (%) ([1]; 2.5 μg/mL): 54.1%
- Red/Green ratio ([1]; 2.5 μg/mL): 1.09
- depolarization of mitochondrial membrane ([1]; 2.5 μg/mL-80 μg/mL): 19.8%-54.1%
- Average Green fluorescence ([1]; 5 μg/mL): 560.0
- Average Red fluorescence ([1]; 5 μg/mL): 709.3
- Percentage decrease in MMP (%) ([1]; 5 μg/mL): 46.9%
- Red/Green ratio ([1]; 5 μg/mL): 1.27
- Average Green fluorescence ([1]; 10 μg/mL): 596.3
- Average Red fluorescence ([1]; 10 μg/mL): 1098.3
- Percentage decrease in MMP (%) ([1]; 10 μg/mL): 22.8%
- Red/Green ratio ([1]; 10 μg/mL): 1.84
- Average Green fluorescence ([1]; 20 μg/mL): 497.3
- Average Red fluorescence ([1]; 20 μg/mL): 929.3
- Percentage decrease in MMP (%) ([1]; 20 μg/mL): 21.7%
- Red/Green ratio ([1]; 20 μg/mL): 1.87
- Average Green fluorescence ([1]; 40 μg/mL): 535.7
- Average Red fluorescence ([1]; 40 μg/mL): 1009.0
- Percentage decrease in MMP (%) ([1]; 40 μg/mL): 21.0%
- Red/Green ratio ([1]; 40 μg/mL): 1.88
- Average Green fluorescence ([1]; 80 μg/mL): 500.3
- Average Red fluorescence ([1]; 80 μg/mL): 957.3
- Percentage decrease in MMP (%) ([1]; 80 μg/mL): 19.8%
- Red/Green ratio ([1]; 80 μg/mL): 1.91
- % Cytotoxicity [2]: 93.1%
- Average absorbance at 450 nM ([3]; 2.5 μg/mL): 1.717
- Percentage decrease in VEGF levels ([3]; 2.5 μg/mL): −5.5%
- VEGF level ([3]; 2.5 μg/mL): 1077.5 pg/mL
- Average absorbance at 450 nM ([3]; 5 μg/mL): 1.821
- Percentage decrease in VEGF levels ([3]; 5 μg/mL): −12.3%
- VEGF level ([3]; 5 μg/mL): 1146.8 pg/mL
- Average absorbance at 450 nM ([3]; 10 μg/mL): 2.085
- Percentage decrease in VEGF levels ([3]; 10 μg/mL): −29.5%
- VEGF level ([3]; 10 μg/mL): 1322.6 pg/mL
- Average absorbance at 450 nM ([3]; 20 μg/mL): 2.202
- Percentage decrease in VEGF levels ([3]; 20 μg/mL): −37.2%
- VEGF level ([3]; 20 μg/mL): 1400.6 pg/mL
- Average absorbance at 450 nM ([3]; 80 μg/mL): 2.006
- Percentage decrease in VEGF levels ([3]; 80 μg/mL): −24.4%
- VEGF level ([3]; 80 μg/mL): 1269.9 pg/mL
- % Cytotoxicity [4]: 28.0%
- % inhibition of FBS stimulated cell growth ([5]; 2.5 μg/mL): −9.83%
- Mean (MTT absorbance) ([5]; 2.5 μg/mL): 1.761
- % inhibition of FBS stimulated cell growth ([5]; 5 μg/mL): −12.16%
- Mean (MTT absorbance) ([5]; 5 μg/mL): 1.799
- % inhibition of FBS stimulated cell growth ([5]; 10 μg/mL): −16.59%
- Mean (MTT absorbance) ([5]; 10 μg/mL): 1.870
- inhibition of endothelial cell proliferation as compared to control ([5]; 20 μg/mL to 100 μg/mL): 15.51% to 58.53%
- % inhibition of FBS stimulated cell growth ([5]; 20 μg/mL): 15.51%
- Mean (MTT absorbance) ([5]; 20 μg/mL): 1.355
- % inhibition of FBS stimulated cell growth ([5]; 40 μg/mL): 29.22%
- Mean (MTT absorbance) ([5]; 40 μg/mL): 1.135
- % inhibition of FBS stimulated cell growth ([5]; 80 μg/mL): 56.50%
- Mean (MTT absorbance) ([5]; 80 μg/mL): 0.698
- % inhibition of FBS stimulated cell growth ([5]; 100 μg/mL): 58.53%
- Mean (MTT absorbance) ([5]; 100 μg/mL): 0.665
- increase in mitochondrial membrane depolarization as compared to Control (Untreated) [6]: 16.1%-36.4%
- increase in mitochondrial membrane depolarization as compared to Control (Untreated) [7]: 36.8%-60.9%
